The domain aggregation screens of Martell et al. (2025)

Assay: soluble fraction after stress (log2 fold change); higher = more stays soluble; pooled small domains, quantitative proteomics
Settings: stress: pH 4
How it was run: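 Aggregation propensity is estimated from the fold change in each domain's soluble amount after acid stress. Pooled small-domain libraries were stressed at pH 4, and higher log2 values mean more stayed soluble.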
With “HMGSLGSLLKSVRNQRGLSRQQMAQSLNIGVRAIEQIEEGERKPDLELLNRYARGLMDPSVT” the “soluble fraction (log2)” value was -0.138.
With “HMQISLDTKLINLEFSVRANNVFRENQIFTLRDLTSHSKEDLMLMTNFGKTTLYEVNKKLEEHQLKLSQ” the “soluble fraction (log2)” value was -1.53.
With “HMQEKLELIIPVSSIGKRADVAIQDLLSSYSRAKIQEWIKSGFILLESKKISPKDIFMGGERVFIDIQQDE” the “soluble fraction (log2)” value was -1.38.
With “HMNKVAQFYRELVSTLSERLRNGERDIDALVEQARVRISQSGELTQSEIENVIRAVRRDLEEFALSYEE” the “soluble fraction (log2)” value was -1.73.
With “HMQDRDKNVPAGKELLDNEIARLNMSLKQVEQFALPRYNLKTLEDLYSGIGSGDIRLNHLINFLQSKLI” the “soluble fraction (log2)” value was -0.892.
With “HMSVLLDDLSPREREILQLVVEGHSSTKIAGMLGLASATVDTYRSRLMAKLHIDNLPDLVRFAIRHGLIS” the “soluble fraction (log2)” value was -0.122.
For “HMPSPTPEQVLKAFTDAAMQKNTVEELKQAFAKAWKMLEGTPEQHKAQDVYNIRRDELEGAA”, the “soluble fraction (log2)” value was -0.0378.
For “HMIQLTDAEFNELVTYIKKNYGINLIKKRLLIEARMYSVLAKHGFTSFTEYINLIKRDPAELNTMLNKLTT”, the “soluble fraction (log2)” value was 0.126.
In the case of “HMSNLNHSFQYKKNIGRKISLTYLGRDNESISKIYELIDSNDSGILVKNKNVEIFIHYEKIVSAKIKVS”, the “soluble fraction (log2)” value is reported as -0.213.
With “HMIVVTSPQVTDERIAEIVAFIEKHGVQAHVSRGTDRTVIGIIGKADPVLAEHLRSMQGVENVIKIS” the “soluble fraction (log2)” value was -0.126.
In the case of “HMALDSQEVGYNIEARGARPVVAQLGKAGQFSAVENSIRLGDDNWIALAPKLAGGGNAGFTAGIKSALS”, the “soluble fraction (log2)” value is reported as -0.293.
With “HMSILYNAVKGTLVSSGALTADSWYKISSFGTASALPALKVGSIFKTPEGAGDAITLASGDSVYPLTLT” the “soluble fraction (log2)” value was 0.021.
In the case of “HMEVNLEPLIALLRKHRDLDLSGYSKSTLGRRITYFMGLNKISSIDELGRRLAEDDLLFQEFLDKLT”, the “soluble fraction (log2)” value is reported as -0.818.
With “HMPMHPEDLKKLVSIEMPFGKHKGRIIADLPGNYLNWFAREGFPPGEIGRLLQLMQEIDHNGLSDLLKPLR” the “soluble fraction (log2)” value was -0.645.
With “HMENLQLQQLVKGLPEKMQEIVILRFSQELTMREIADIVNLPMRTVQSQLRLALKILKKEMG” the “soluble fraction (log2)” value was 0.145.
For “HMPLVIIRGIEGVFSSEEKAEAIRKVTDALVSVKGENVRGFAWVVFEEVKSGDWGIGGESITAEKVIMSL”, the “soluble fraction (log2)” value was -0.39.
For “HMENEDMTGDIRVIDYIRNVAEYIQTTKGQASASQMLDRFLFPPELQYTPLDKLSGGEQRRLYLLKVLMEA”, the “soluble fraction (log2)” value was -0.575.
For “HMDDIVPHSTKNHIIKTFLSLMNSLDIITDKNKKSLNQNVHIIFNKFNFSKKEANLFIGVLNRIQKALK”, the “soluble fraction (log2)” value was 0.134.
With “HMDKTTIKNEQKKQILIFAEMNLFFKAKDVAELLGLQASRARYLLQELVKDGKIQGIGNNKGRKYQLI” the “soluble fraction (log2)” value was -0.591.
For “HMKNKRERLGIISEILRMQVIGSQEELLDILRAKGYDVTQATLSRDLKVLKVAKTPLSNGAYKYVLPPQ”, the “soluble fraction (log2)” value was ≥ 0.43.
With “HMKTLDATQRLKLNGEGIIVFNFGKYVDQPVVEIFKKERGYFAWMMSKDFSQQVKNIITKIHNEEILGK” the “soluble fraction (log2)” value was -0.344.
For “HMAVTEVKTTAVVNMRSSDSEKADKLGKAQIGDTFRVLEQRANGWTKLTDGTQEFFIKSEYLEAIA”, the “soluble fraction (log2)” value was 0.0485.
For “HMDSTLDLVATQGGRLDQVLAEMIPEHSRNRLQHWIKAGRVLVDGQPVLEPKHKIYGGEDLAVRVD”, the “soluble fraction (log2)” value was 0.123.
With “HMLNLNEAEKSIYVLIKKNESNNLNKVKEDSNLSNKAWDKGIKNLVKNNLVKVVKSNEGLFIQLV” the “soluble fraction (log2)” value was 0.196.
With “HMEIPTEEILKQKLYYSISEVASWFKVNTSLLRYWENEFDILQPRKTRKGDRLFRVEDIKNLQLIYLL” the “soluble fraction (log2)” value was -0.122.
For “HMGKEDLTAAIKKMTLNDKLDIHKIVANFQTNDSEEVITAVKWLMENNYLLKIKNNYTWNTKEK”, the “soluble fraction (log2)” value was 0.22.
In the case of “HMNKAYLTVADMKKDKSLKNGDVVRTLGYYGYNDGDGAVYQIKDSHPEDYHIRLDNGLDAEQINY”, the “soluble fraction (log2)” value is reported as 0.174.
With “HMFGIEIPEEAGKLQDYTLTDDDLEGGNTLKEIQFPQGARVVIIRRDDKFIIPDGSVELQSGDQLLIIYGE” the “soluble fraction (log2)” value was -1.81.
In the case of “HMVIDETVLIDLFERLAEDDRPQRVAFRYILALVLLRKRTLQLIGREDEDDGEIWLLRFKGTDGEPIRV”, the “soluble fraction (log2)” value is reported as -2.56.
With “HMRATLTDETARVVQEPTSESISLTSLRKGEEFEIGKVIRKKKEVWVTVTTSSGVKGYISGDTHIF” the “soluble fraction (log2)” value was ≥ 0.43.
With “HMVPLSPRFFDIFRKRKDLTRQNVDVYFRDHPTEITAFERYIKGLVSQSYIPAERADALLLVASQYKAK” the “soluble fraction (log2)” value was 0.0777.
For “HMTQQYVEWKVYNVTTIKNKYGFRVKLIFQDGSDATQQKGGFTSKKAAEQARTEVIGQLYSNTYVVY”, the “soluble fraction (log2)” value was ≥ 0.43.
In the case of “HMLPELQPGQTFSARIQQALPDNTYRALVAGKQLTLQLPEGAKAGDELELVVLDRSARVIIARQVD”, the “soluble fraction (log2)” value is reported as 0.336.
With “HMVSDSAELSAFVADVIKENAQAVADYKGGKTNVFGWLMGQIIKKSGGKATPAAAAALLKAELEK” the “soluble fraction (log2)” value was -0.14.
In the case of “HMNQTTYTVLYSGMDPADTGKVLTALNEMGVDARTQGEDTVLVPADRADEIRLELAAQGYPTS”, the “soluble fraction (log2)” value is reported as -0.0312.
For “HMSESGTFRAEAADAGRRLDVALAERLRLSRAAAQRLIAAGLVLVEGSPARKRQILHAGETVAWRAAPP”, the “soluble fraction (log2)” value was -0.0686.
In the case of “HMSVNEKVRLFRELNQWSQEEMAERMNMSVAGYAKIERGETNISLHKLKQIASVLQIDLLDLVS”, the “soluble fraction (log2)” value is reported as -0.867.
For “HMSPGAKIEVTGNTVNLRAGPGTNYDTRGQVKKGEQLPLLGEQGGWYRVQTSRGVAYLAGWLARVLT”, the “soluble fraction (log2)” value was -0.0378.
